{
  "source": "paper PMC11503491",
  "experiment_in_all_cases": "BLI",
  "key": {"[1]": {"biological_target": "R11K (RBD 319-533 with 11 added lysines and the repackaging substitutions Y365F, F392W, V395I) (SARS-CoV-2 Wuhan Hu-1)"}, "[2]": {"biological_target": "R11K-PMD (R11K modified with NHS-PEG4-methyl while protected by S2X259) (SARS-CoV-2 Wuhan Hu-1)"}, "[3]": {"biological_target": "R11K-CL (R11K cross-linked with Bis-NHS-PEG5 while protected by S2X259) (SARS-CoV-2 Wuhan Hu-1)"}, "[4]": {"biological_target": "R11K-PMD (R11K modified with NHS-PEG4-methyl while protected on S2X259 resin) (SARS-CoV-2 Wuhan Hu-1)"}, "[5]": {"biological_target": "R11K-CL (R11K cross-linked with Bis-NHS-PEG5 while protected on S2X259 resin) (SARS-CoV-2 Wuhan Hu-1)"}, "[6]": {"biological_target": "R11K (RBD with 11 additional lysines and three repackaging substitutions) (SARS-CoV-2 Wuhan Hu-1)"}},
  "data": [
    {"substance": "CB6 (class 1 RBD-directed antibody)", "values": [
      {"measurement": "koff", "setting": "[1]", "value": 0.037, "unit": "s⁻¹"}
    ]},
    {"substance": "CR3022 (class 4 RBD-directed antibody)", "values": [
      {"measurement": "koff", "setting": "[1]", "value": 0.059, "unit": "s⁻¹"}
    ]},
    {"substance": "S2X259 (class 4 RBD-directed antibody)", "values": [
      {"measurement": "koff", "setting": "[1]", "value": 0.0021, "unit": "s⁻¹"}
    ]},
    {"substance": "S2X259 IgG (antibody)", "values": [
      {"measurement": "koff", "setting": "[2]", "value": 0.00085, "unit": "s⁻¹"},
      {"measurement": "koff", "setting": "[3]", "value": 0.001, "unit": "s⁻¹"}
    ]},
    {"substance": "S309 (class 3 RBD-directed antibody)", "values": [
      {"measurement": "koff", "setting": "[1]", "value": 0.00014, "unit": "s⁻¹"},
      {"measurement": "koff", "setting": "[4]", "value": 0.0019, "unit": "s⁻¹"},
      {"measurement": "koff", "setting": "[5]", "value": 0.0021, "unit": "s⁻¹"}
    ]},
    {"substance": "fragment antigen-binding region (Fab) of S2X259", "values": [
      {"measurement": "Kd", "setting": "[6]", "value": 1.5, "unit": "nM"}
    ]}
  ]
}
